The target of this test is purified full-length human BACE with six C-terminal His residues, expressed in Sf9 insect cells (human, UniProt P56817 46-501). Put plainly: radioligand equilibrium binding (Scatchard plot); no inhibitor.

The Kd is the free concentration of one partner at which half of the binding sites on the other are occupied at equilibrium, for simple one-to-one binding. The low end stands for a tighter complex, the high end for a looser complex.

Square brackets hold non-standard residues; d marks the D form. Ends that are not written are not given here. Sta = CC(C)C[C@H](N)[C@@H](O)CC(=O)O

Sequence of purified full-length human BACE with six C-terminal His residues, expressed in Sf9 insect cells (P56817 other isoform, or with tags, fused parts or gaps): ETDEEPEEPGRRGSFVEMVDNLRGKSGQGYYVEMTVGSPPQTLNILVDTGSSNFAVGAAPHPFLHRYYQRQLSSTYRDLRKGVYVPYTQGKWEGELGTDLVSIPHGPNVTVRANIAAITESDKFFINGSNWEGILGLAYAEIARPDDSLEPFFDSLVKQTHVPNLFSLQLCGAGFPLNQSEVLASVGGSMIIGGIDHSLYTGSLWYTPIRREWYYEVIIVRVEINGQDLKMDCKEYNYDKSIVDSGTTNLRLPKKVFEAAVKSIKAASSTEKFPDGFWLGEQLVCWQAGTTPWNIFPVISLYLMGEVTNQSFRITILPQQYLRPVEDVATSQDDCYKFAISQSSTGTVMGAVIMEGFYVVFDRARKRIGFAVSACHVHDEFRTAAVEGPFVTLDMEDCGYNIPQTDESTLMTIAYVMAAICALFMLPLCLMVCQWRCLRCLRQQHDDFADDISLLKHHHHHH

EVN[Sta]VAE[Tyr(3H2)]-NH2 [tritiated Compound A (Glu-Val-Asn-Statine-Val-Ala-Glu-Tyr-NH2, iodine of Tyr(I2) exchanged for 3H)]: binding was put at a Kd of 25 nM.

For the origin of these results see patent US20030125257A1 (published 2003).
